# Data reported in US11072647B2, “TGF-receptor II isoform, fusion peptide, methods of treatment and methods in vitro” (Onsejo Nacional DE Investigation Cientiticay Tecnica, priority 2013, dated 2021).
# Test system: CPFX-treated juvenile rats
# Settings: rat, in vivo
# Protocol: Thus, the effect of the TβII-SE isoform was analyzed either in CPFX-treated juvenile rats (24 days old) or untreated rats, by intra-articular injections of lentiviral vectors encoding a recombinant protein of the codon-optimized (co) TβRII-SE fused to the constant fragment (Fc) of the human immunoglobulin 1 (IgG1) (Lt.coTβRII-SE/Fc) or the enhanced green fluorescent protein (Lt.eGFP).
# Male 24-day-old Wistar rats were housed under controlled conditions at 21±1° C. with 50%±5% relative humidity and a constant light-dark schedule (light, 8 a.m. to 8 p.m.). Food and tap water was provided ad libitum. The rats received ciprofloxacin hydrochloride on day 24 by oral administration of 200 mg/kg of body weight during 10 days. The animals were examined for clinical abnormalities including motility alterations and weighted during the treatment period.
# On day 14 after ciprofloxacin treatment, 50 μl viral vectors were injected intra-articularly with either Lt.coTBRII-SE/Fc (2.35×10^6 transducing Units, TU) or Lt.eGFP (6×10^6 TU). Control animals without ciprofloxacin were treated in the same manner.
substance,measurement,value
"coTβRII-SE/Fc: fusion peptide of codon-optimized TβRII-SE and the human IgG1 Fc region, SEQ ID No. 6",X-ray images of knees,radiolucent images with irregular borders in the femoral condyle
